These results are taken from paper PMC3969221.

The target of assay [1] is Manduca sexta cadherin protein fragment (CR7–CR12) (Manduca sexta). Nature of the assay: ELISA; 1 μg of cadherin fragment coated per well; toxin or protoxin dilutions in PBS, 1 h at 37°C; detected with polyclonal anti-Cry1Ab antibody; Scatchard analysis; apparent Kd. (In general: In an ELISA, binding on a coated surface is turned into a signal by an enzyme label.)
Assay [2] has as its target trypsin-activated Cry1AbMod toxin (Bacillus thuringiensis) (UniProt P0A370).

Consider “Cry1Ab protoxin (from UniProt P0A370 1-1155) (natural protein)”, for which the Kd in assay [1] came out at 6.8 nM. In turn, “trypsin-activated Cry1AbMod toxin (from UniProt P0A370 1-1155) (domain or fragment)” returned an LC50 (50% lethal concentration) against M. sexta neonatal larvae, mortality after 7 days in assay [2] of 15 ng/cm^2.
